Measured values: paper PMC4402543 (Nucleic Acids Research, 2015)
Values belong to the binder of their own block, whether it stands above or below them.

Molecular target: full-length His-PCAF fusion protein (human, UniProt Q92831 1-832)
Experiment: pull-down

full-length His-PCAF fusion protein, sequence (Q92831 whole entry, the tested form may be a part): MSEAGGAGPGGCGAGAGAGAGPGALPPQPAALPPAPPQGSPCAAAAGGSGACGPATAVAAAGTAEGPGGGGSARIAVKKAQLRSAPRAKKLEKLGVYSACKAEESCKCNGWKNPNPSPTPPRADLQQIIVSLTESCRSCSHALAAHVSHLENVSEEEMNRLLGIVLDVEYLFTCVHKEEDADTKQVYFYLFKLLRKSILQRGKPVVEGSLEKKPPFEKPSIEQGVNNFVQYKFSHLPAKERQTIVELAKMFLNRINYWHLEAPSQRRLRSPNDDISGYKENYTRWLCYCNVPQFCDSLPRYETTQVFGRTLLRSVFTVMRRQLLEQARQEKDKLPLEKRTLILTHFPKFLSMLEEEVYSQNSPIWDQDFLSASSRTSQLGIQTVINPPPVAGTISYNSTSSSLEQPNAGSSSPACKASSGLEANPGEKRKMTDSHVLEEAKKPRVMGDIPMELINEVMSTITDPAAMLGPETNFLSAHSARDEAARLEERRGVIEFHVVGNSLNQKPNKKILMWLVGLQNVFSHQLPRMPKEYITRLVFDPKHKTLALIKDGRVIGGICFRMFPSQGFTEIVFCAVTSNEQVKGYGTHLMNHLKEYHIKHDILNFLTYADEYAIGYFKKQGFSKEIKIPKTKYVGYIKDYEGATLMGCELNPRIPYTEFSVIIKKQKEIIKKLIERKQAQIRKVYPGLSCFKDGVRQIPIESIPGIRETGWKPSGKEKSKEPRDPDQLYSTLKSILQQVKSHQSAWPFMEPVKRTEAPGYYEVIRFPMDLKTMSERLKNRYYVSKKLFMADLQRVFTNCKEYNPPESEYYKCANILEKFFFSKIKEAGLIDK

binding result: binds
B1: GST-EZH2 SET domain (610-746) (domain or fragment)
chain: not shown

binding result: binds
B2: GST-EZH2 N-terminal domain (1-522) (domain or fragment)
chain: MGQTGKKSEKGPVCWRKRVKSEYMRLRQLKRFRRADEVKSMFSSNRQKILERTEILNQEWKQRRIQPVHILTSVSSLRGTRECSVTSDLDFPTQVIPLKTLNAVASVPIMYSWSPLQQNFMVEDETVLHNIPYMGDEVLDQDGTFIEELIKNYDGKVHGDRECGFINDEIFVELVNALGQYNDDDDDDDGDDPEEREEKQKDLEDHRDDKESRPPRKFPSDKIFEAISSMFPDKGTAEELKEKYKELTEQQLPGALPPECTPNIDGPNAKSVQREQSLHSFHTLFCRRCFKYDCFLHPFHATPNTYKRKNTETALDNKPCGPQCYQHLEGAKEFAAALTAERIKTPPKRPGGRRRGRLPNNSSRPSTPTINVLESKDTDSDREAGTETGGENNDKEEEEKKDETSSSSEANSRCQTPIKMKPNIEPPENVEWSGAEASMFRVLIGTYYDNFCAIARLIGTKTCRQVYEFRVKESSIIAPAPAEDVDTPPRKKKRKHRLWAAHCRKIQLKKDGSSNHVYNYQP
